What all share (assay): fluorescence anisotropy; 20 mM Tris pH 8, 66 mM NaCl, 1 mM DTT, 10% glycerol, 25 C, 10 min; 0.5 nM dsDNA, 0-60 nM Top1
What all share (conditions): protein: recombinant; tags: GST removed by 3C protease; label: 5'-FAM top strand; blunt
A general note: Fluorescence polarisation rises when a labelled molecule tumbles more slowly, as on binding a larger partner.

Series [1] addresses T1, scTop1 catalytically inactive (Y272F as printed) (Saccharomyces cerevisiae, UniProt P04786 1-769, Y727F).
T1 sequence: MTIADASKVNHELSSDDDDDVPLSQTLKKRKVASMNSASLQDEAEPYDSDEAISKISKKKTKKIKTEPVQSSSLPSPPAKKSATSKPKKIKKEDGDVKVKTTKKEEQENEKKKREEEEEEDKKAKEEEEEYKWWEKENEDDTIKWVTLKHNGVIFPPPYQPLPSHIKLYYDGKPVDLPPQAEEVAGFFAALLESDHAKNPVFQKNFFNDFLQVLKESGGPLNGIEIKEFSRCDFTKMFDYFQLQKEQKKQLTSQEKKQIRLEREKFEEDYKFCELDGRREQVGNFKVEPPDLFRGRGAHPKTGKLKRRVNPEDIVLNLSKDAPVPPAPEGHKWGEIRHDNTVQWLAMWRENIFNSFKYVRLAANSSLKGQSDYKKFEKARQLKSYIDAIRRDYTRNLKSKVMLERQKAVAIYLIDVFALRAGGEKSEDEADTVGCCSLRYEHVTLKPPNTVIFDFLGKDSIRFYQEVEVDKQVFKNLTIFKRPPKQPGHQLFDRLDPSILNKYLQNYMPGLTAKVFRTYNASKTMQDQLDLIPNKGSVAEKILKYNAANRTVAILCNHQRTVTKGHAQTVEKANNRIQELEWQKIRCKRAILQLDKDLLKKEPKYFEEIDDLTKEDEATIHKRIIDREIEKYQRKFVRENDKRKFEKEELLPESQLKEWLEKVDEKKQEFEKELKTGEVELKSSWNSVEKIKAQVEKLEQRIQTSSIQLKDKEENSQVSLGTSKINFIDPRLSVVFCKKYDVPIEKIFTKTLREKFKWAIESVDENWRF

Series [2] deals with hTop1-Y723F (catalytically inactive) (Homo sapiens, UniProt P11387 1-765, Y723F).
The target in series [3] is T2, hTop1mt-Y559F (catalytically inactive) (Homo sapiens, UniProt Q969P6 51-601, Y559F).
T2 sequence: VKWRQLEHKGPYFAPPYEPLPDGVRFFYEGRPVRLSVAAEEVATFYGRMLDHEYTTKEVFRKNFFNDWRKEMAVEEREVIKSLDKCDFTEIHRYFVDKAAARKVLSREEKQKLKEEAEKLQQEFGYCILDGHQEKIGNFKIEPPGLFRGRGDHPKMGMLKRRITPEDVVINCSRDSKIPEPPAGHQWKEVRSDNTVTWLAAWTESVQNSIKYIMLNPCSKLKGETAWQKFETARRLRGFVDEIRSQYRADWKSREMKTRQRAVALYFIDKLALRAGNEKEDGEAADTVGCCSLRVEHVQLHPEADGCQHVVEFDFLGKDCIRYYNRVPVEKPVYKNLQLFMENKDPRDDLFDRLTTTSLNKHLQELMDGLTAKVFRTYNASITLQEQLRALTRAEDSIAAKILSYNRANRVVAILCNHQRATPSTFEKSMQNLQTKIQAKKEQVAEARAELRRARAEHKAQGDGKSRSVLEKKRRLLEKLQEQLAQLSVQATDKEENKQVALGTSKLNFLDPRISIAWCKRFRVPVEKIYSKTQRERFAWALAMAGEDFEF

Sequence of hTop1-Y723F (catalytically inactive) (P11387 whole entry Y723F): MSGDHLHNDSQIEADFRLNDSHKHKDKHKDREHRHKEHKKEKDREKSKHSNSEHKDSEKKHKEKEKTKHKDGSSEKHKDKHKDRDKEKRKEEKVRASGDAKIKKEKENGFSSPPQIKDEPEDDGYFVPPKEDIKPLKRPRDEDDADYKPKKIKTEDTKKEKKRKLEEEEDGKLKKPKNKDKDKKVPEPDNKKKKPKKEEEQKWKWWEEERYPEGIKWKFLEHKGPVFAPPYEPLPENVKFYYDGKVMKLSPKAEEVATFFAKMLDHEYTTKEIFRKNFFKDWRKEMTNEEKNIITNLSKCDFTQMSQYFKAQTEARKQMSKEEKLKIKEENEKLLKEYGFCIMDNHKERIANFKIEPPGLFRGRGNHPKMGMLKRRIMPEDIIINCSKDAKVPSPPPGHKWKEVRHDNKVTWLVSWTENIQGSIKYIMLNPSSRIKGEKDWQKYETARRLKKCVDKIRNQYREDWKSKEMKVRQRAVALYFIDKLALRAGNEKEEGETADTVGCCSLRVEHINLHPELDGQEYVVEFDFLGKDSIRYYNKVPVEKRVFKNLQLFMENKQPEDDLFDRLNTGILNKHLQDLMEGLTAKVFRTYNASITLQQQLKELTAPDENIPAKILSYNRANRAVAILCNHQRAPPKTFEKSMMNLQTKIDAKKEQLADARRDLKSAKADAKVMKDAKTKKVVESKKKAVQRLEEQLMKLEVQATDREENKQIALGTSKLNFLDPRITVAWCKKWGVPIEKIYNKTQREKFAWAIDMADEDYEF

B1: Substrate C (dsDNA)
DNA 1: ACTCGTCACGAGAGAGATGCCACGGTATTTCAAA
DNA 2: TTTGAAATACCGTGGCATCTCTCTCGTGACGAGT
For B1, the Kd (as a rule, the equilibrium constant for the complex coming apart) was determined as 9.47 nM in series [1], 1.26 nM in series [2] and 4.57 nM in series [3].

B2: Substrate D (dsDNA)
DNA 1: ACTCGTCACGAGAGAGATGCCACGGTATTTCAAA
DNA 2: TTTGAAATACCGTGGCATCTCTCTCGTGACGAGT
modifications: single ribonucleotide rG at position 16 of top strand (2 nt upstream of cleavage site), rest DNA
Regarding B2, the Kd in series [1] is 8.75 nM; in series [2] it was 1.36 nM; in series [3] it was 2.29 nM.

B3: Substrate A (dsDNA)
DNA 1: AGCGTTGAAGATATGTGGCAAAACCTTTGT
DNA 2: ACAAAGGTTTTGCCACATATCTTCAACGCT
As to B3, the values for the Kd in series [1], in series [2] and in series [3] were 3.55 nM, 1.16 nM and 3.5 nM, respectively.
